Test results published in the supplement of paper PMC10724198.
± gives the standard deviation of the averaged measurements.

Tested on: Saccharomyces cerevisiae
Assay: protein stability index of tFT-peptide fusion (C-terminal peptide) (PSI (0-1 scale)); higher = more stable (slower turnover)
Conditions: temperature: 30 C
Protocol: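 MPS profiling in S. cerevisiae of the yeast C-terminome library: the last 12 aa of each annotated ORF are fused to the C-terminus of a sfGFP-mCherry timer, after a GGGS linker. Cells are FACS-sorted into 8 mCherry/sfGFP bins and deep-sequenced. PSI runs from 0 (unstable) to 1 (stable); wild type and das1Δ backgrounds, two technical replicates each.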

[1] = genetic background: das1 deletion

Sequence | protein stability index [1] | protein stability index (genetic background: wild type)
GALALGLISYLL [FIT2 C-terminal 12 aa] | 0.695 ± 0.007 | 0.686 ± 0.014
YLARRKPSIELR [YPR170W-B C-terminal 12 aa] | 0.716 ± 0.03 | 0.7212 ± 0.0052
ESDLAAARSEDK [VTH1 C-terminal 12 aa] | 0.7237 ± 0.0031 | 0.659 ± 0.012
FYDLWDAYEDDS [GDB1 C-terminal 12 aa] | 0.751 ± 0.028 | 0.704 ± 0.013
EKDNSQKIEAKK [SDH4 C-terminal 12 aa] | 0.69 ± 0.012 | 0.697 ± 0.11
LSCRKNLSAFAT [YOL085C C-terminal 12 aa] | 0.658 ± 0.018 | 0.666 ± 0.0096
DASSTKNTDHIV [MEP2 C-terminal 12 aa] | 0.678 ± 0.014 | 0.679 ± 0.068
QVRDILDKLNII [PRB1 C-terminal 12 aa] | 0.703 ± 0.015 | 0.6877 ± 0.0033
LEWLSNNLKNQS [ARF2 C-terminal 12 aa] | 0.702 ± 0.0047 | 0.714 ± 0.041
KICVTLIVNELI [YLR342W-A C-terminal 12 aa] | 0.4662 ± 0.0016 | 0.39 ± 0.028
GMLGLSALLGGE [SEC11 C-terminal 12 aa] | 0.687 ± 0.019 | 0.678 ± 0.016
SQNGHTSGSENI [LSP1 C-terminal 12 aa] | 0.6941 ± 0.005 | 0.699 ± 0.03
WKKFLKFSKNSD [HXT13 C-terminal 12 aa] | 0.7176 ± 0.0052 | 0.685 ± 0.039
CRKGVSHKGVCH [YBL111C C-terminal 12 aa] | 0.721 ± 0.026 | 0.71 ± 0.035
GKCTSSKFKLSS [KRE6 C-terminal 12 aa] | 0.71 ± 0.026 | 0.619 ± 0.024
AERAGNAGVKAE [SND3 C-terminal 12 aa] | 0.654 ± 0.0096 | 0.685 ± 0.017
IAEGKSLGIIGA [HXK1 C-terminal 12 aa] | 0.6923 ± 0.0061 | 0.686 ± 0.034
VIFLFLRTIHFL [PGC1 C-terminal 12 aa] | 0.501 ± 0.015 | 0.142 ± 0.0083
TDNTVDKFDFYK [RPT3 C-terminal 12 aa] | 0.711 ± 0.016 | 0.71 ± 0.013
EDAFLKDVFQQS [KGD1 C-terminal 12 aa] | 0.7394 ± 0.0043 | 0.782 ± 0.093
NPHPRIQMKMSV [CDC21 C-terminal 12 aa] | 0.663 ± 0.035 | 0.624 ± 0.048

Sequence | protein stability index [1] | protein stability index (genetic background: wild type)
YKNRPNKEKDTL [STB6 C-terminal 12 aa] | 0.693 ± 0.021 | 0.688 ± 0.047
FELAKVSFDNKR [YKR104W C-terminal 12 aa] | 0.736 ± 0.031 | 0.707 ± 0.095
NYTLTVENKNKV [SPC3 C-terminal 12 aa] | 0.693 ± 0.051 | 0.734 ± 0.03
VKHKVVSVDEDN [MPM1 C-terminal 12 aa] | 0.681 ± 0.014 | 0.6529 ± 0.001
GEAVPEPVEEES [SEC27 C-terminal 12 aa] | 0.698 ± 0.013 | 0.691 ± 0.043
GAVVAGAAALLL [TIP1 C-terminal 12 aa] | 0.729 ± 0.024 | 0.709 ± 0.032
VKSNPQPAYTFQ [YFR012W-A C-terminal 12 aa] | 0.679 ± 0.02 | 0.6969 ± 2.8e-05
RHEGQRSKNSVK [GYP7 C-terminal 12 aa] | 0.686 ± 0.015 | 0.689 ± 0.019
SIDETELAKWNE [PEP3 C-terminal 12 aa] | 0.734 ± 0.063 | 0.7 ± 0.048
DIPSEEGTKVIL [BSC3 C-terminal 12 aa] | 0.701 ± 0.016 | 0.691 ± 0.011
INDKNTEYTLKE [MRX9 C-terminal 12 aa] | 0.703 ± 0.019 | 0.732 ± 0.017
VPLESTKRQPLH [YBR053C C-terminal 12 aa] | 0.719 ± 0.0097 | 0.704 ± 0.026
KNWGPKARPNTS [TRM1 C-terminal 12 aa] | 0.698 ± 0.016 | 0.655 ± 0.011
IIDLNLHSFTKQ [POP6 C-terminal 12 aa] | 0.722 ± 0.022 | 0.73 ± 0.021
NRPGKSRRARRF [EBP2 C-terminal 12 aa] | 0.694 ± 0.026 | 0.668 ± 0.016
TNPHQADASPKK [MPE1 C-terminal 12 aa] | 0.71 ± 0.023 | 0.702 ± 0.021
YDLQALFKYFFS [ADY3 C-terminal 12 aa] | 0.691 ± 0.011 | 0.64 ± 0.022
NENIHSLIGNSY [NNF2 C-terminal 12 aa] | 0.702 ± 0.023 | 0.693 ± 0.0087
RFREEAYYSQFR [TCD2 C-terminal 12 aa] | 0.716 ± 0.013 | 0.672 ± 0.037
SEEKSNLIEFEA [MDR1 C-terminal 12 aa] | 0.705 ± 0.013 | 0.6734 ± 0.0028
